Measured values published in publication PMC6222199, “Regulatory Targets of the Response Regulator RR_1586 from Clostridioides difficile Identified Using a Bacterial One-Hybrid Screen”.

Target: RR_1586 D50G (Clostridioides difficile R20291, UniProt A0A9R0BKD1 1-223, D50G)
Assay: EMSA; 10 mM Mg2+; phosphoramidate; EMSA: 5 pmol DNA in 10 ul (500 nM), 10 mM Tris pH 8, 50 mM NaCl, 10 mM MgCl2, room temperature 10 min; 10% PAGE 0.5x TBE on ice, ethidium bromide
Details: protein: recombinant; tags: His6; chain copies: 2; blunt

B1: CDR20291_1583 site (dsDNA)
DNA 1: AGGAATTAAGGAGCAATTAAATGATG
DNA 2: CATCATTTAATTGCTCCTTAATTCCT
binding result: binds
